The conditions of this series: Bacillus amyloliquefaciens; pH 6.3; 25 °C; Urea; Fluorescence; MES 50 mM; reversible: yes; whole UniProt chain shown.

This is an account of results in FireProtDB (doi:10.1016/s0022-2836(99)80018-7).

B1: Ribonuclease wild type, P00648 (protein)
chain: MMKMEGIALKKRLSWISVCLLVLVSAAGMLFSTAAKTETSSHKAHTEAQVINTFDGVADYLQTYHKLPDNYITKSEAQALGWVASKGNLADVAPGKSIGGDIFSNREGKLPGKSGRTWREADINYTSGFRNSDRILYSSDWLIYKTTDHYQTFTKIR
Regarding B1, the denaturant m value worked out at 2.02 kcal/mol/M, the “denaturant midpoint (higher = more stable)” value was determined as 4.58 M and the unfolding free energy amounted to 41.5 kJ/mol.
